In the supplement of paper PMC5998384:

Tests used:
HeLa Kyoto [1] = assay: solubility in G1/S (NP-40 vs SDS abundance) (log2 ratio); higher = more soluble; details: cell cycle stage: G1/S
HeLa Kyoto [2] = assay: melting temperature (median over replicates), in situ; higher = more thermally stable
HeLa Kyoto [3] = assay: solubility change mitosis vs G1/S (difference of NP-40 vs SDS log2 ratios) (log2 ratio difference); higher = more soluble in mitosis
HeLa Kyoto [4] = assay: thermal stability score vs G1/S (z-score of summed log2 fold changes over temperatures); higher = more thermally stable than in G1/S
[5] = cell cycle stage: early G1 (4.5 h after nocodazole release)
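Wherever melting temperature (median over replicates), in situ is given: HeLa Kyoto cells synchronized by double thymidine or nocodazole block, proteins quantified by TMT10plex mass spectrometry, three independent biological replicates.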
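Wherever solubility change mitosis vs G1/S (difference of NP-40 vs SDS log2 ratios) is given: synchronized HeLa Kyoto cells (double thymidine block for G1/S, nocodazole release for mitosis), protein amounts in NP-40 versus SDS lysates quantified by mass spectrometry, three biological replicates.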
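Wherever solubility in G1/S (NP-40 vs SDS abundance) is given: HeLa Kyoto cells arrested at G1/S by double thymidine block, proteins quantified by TMT10plex mass spectrometry in mild NP-40 versus SDS extracts, three biological replicates.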
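Wherever thermal stability score vs G1/S (z-score of summed log2 fold changes over temperatures) is given: synchronized HeLa Kyoto cells, proteins quantified by TMT10plex mass spectrometry, three biological replicates, mitosis taken 0.5 h after nocodazole release, G1/S directly after double thymidine block.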

| Substance | solubility in G1/S (log2) (HeLa Kyoto [1]) | melting temperature (HeLa Kyoto [2]; cell cycle stage: G1/S) [°C] | melting temperature (HeLa Kyoto [2]; cell cycle stage: mitosis) [°C] | solubility change mitosis (log2) (HeLa Kyoto [3]) | thermal stability score (HeLa Kyoto [4]; [5]) | thermal stability score (HeLa Kyoto [4]; cell cycle stage: mitosis) |
| --- | --- | --- | --- | --- | --- | --- |
| ZNFX1 | -0.239 | 50.3 | 49.5 | -0.0887 | -0.325 | 0.64 |
| MAVARAALGPLVTGLYDVQAFKFGDFVLKSGLSSPIYIDLRGIVSRPRLLSQVADILFQTAQNAGISFDTVCGVPYTALPLATVICSTNQIPMLIRRKETKDYGTKRLVEGTINPGETCLIIEDVVTSGSSVLETVEVLQKEGLKVTDAIVLLDREQGGKDKLQAHGIRLHSVCTLSKMLEILEQQKKVDAETVGRVKRFIQENVFVAANHNGSPLSIKEAPKELSFGARAELPRIHPVASKLLRLMQKKETNLCLSADVSLARELLQLADALGPSICMLKTHVDILNDFTLDVMKELITLAKCHEFLIFEDRKFADIGNTVKKQYEGGIFKIASWADLVNAHVVPGSGVVKGLQEVGLPLHRGCLLIAEMSSTGSLATGDYTRAAVRMAEEHSEFVVGFISGSRVSMKPEFLHLTPGVQLEAGGDNLGQQYNSPQEVIGKRGSDIIIVGRGIISAADRLEAAEMYRKAAWEAYLSRLGV [UMPS] | 0.169 | 53.9 | 53 | -0.08 | -0.259 | -1.37 |
| MRLLRRRHMPLRLAMVGCAFVLFLFLLHRDVSSREEATEKPWLKSLVSRKDHVLDLMLEAMNNLRDSMPKLQIRAPEAQQTLFSINQSCLPGFYTPAELKPFWERPPQDPNAPGADGKAFQKSKWTPLETQEKEEGYKKHCFNAFASDRISLQRSLGPDTRPPECVDQKFRRCPPLATTSVIIVFHNEAWSTLLRTVYSVLHTTPAILLKEIILVDDASTEEHLKEKLEQYVKQLQVVRVVRQEERKGLITARLLGASVAQAEVLTFLDAHCECFHGWLEPLLARIAEDKTVVVSPDIVTIDLNTFEFAKPVQRGRVHSRGNFDWSLTFGWETLPPHEKQRRKDETYPIKSPTFAGGLFSISKSYFEHIGTYDNQMEIWGGENVEMSFRVWQCGGQLEIIPCSVVGHVFRTKSPHTFPKGTSVIARNQVRLAEVWMDSYKKIFYRRNLQAAKMAQEKSFGDISERLQLREQLHCHNFSWYLHNVYPEMFVPDLTPTFYGAIKNLGTNQCLDVGENNRGGKPLIMYSCHGLGGNQYFEYTTQRDLRHNIAKQLCLHVSKGALGLGSCHFTGKNSQVPKDEEWELAQDQLIRNSGSGTCLTSQDKKPAMAPCNPSDPHQLWLFV [GALNT6] | 0.0486 | 53.6 | 53.2 | -0.117 | 4 | 5.54 |
| MERAESSSTEPAKAIKPIDRKSVHQICSGQVVLSLSTAVKELVENSLDAGATNIDLKLKDYGVDLIEVSDNGCGVEEENFEGLTLKHHTSKIQEFADLTQVETFGFRGEALSSLCALSDVTISTCHASAKVGTRLMFDHNGKIIQKTPYPRPRGTTVSVQQLFSTLPVRHKEFQRNIKKEYAKMVQVLHAYCIISAGIRVSCTNQLGQGKRQPVVCTGGSPSIKENIGSVFGQKQLQSLIPFVQLPPSDSVCEEYGLSCSDALHNLFYISGFISQCTHGVGRSSTDRQFFFINRRPCDPAKVCRLVNEVYHMYNRHQYPFVVLNISVDSECVDINVTPDKRQILLQEEKLLLAVLKTSLIGMFDSDVNKLNVSQQPLLDVEGNLIKMHAADLEKPMVEKQDQSPSLRTGEEKKDVSISRLREAFSLRHTTENKPHSPKTPEPRRSPLGQKRGMLSSSTSGAISDKGVLRPQKEAVSSSHGPSDPTDRAEVEKDSGHGSTSVDSEGFSIPDTGSHCSSEYAASSPGDRGSQEHVDSQEKAPKTDDSFSDVDCHSNQEDTGCKFRVLPQPTNLATPNTKRFKKEEILSSSDICQKLVNTQDMSASQVDVAVKINKKVVPLDFSMSSLAKRIKQLHHEAQQSEGEQNYRKFRAKICPGENQAAEDELRKEISKTMFAEMEIIGQFNLGFIITKLNEDIFIVDQHATDEKYNFEMLQQHTVLQGQRLIAPQTLNLTAVNEAVLIENLEIFRKNGFDFVIDENAPVTERAKLISLPTSKNWTFGPQDVDELIFMLSDSPGVMCRPSRVKQMFASRACRKSVMIGTALNTSEMKKLITHMGEMDHPWNCPHGRPTMRHIANLGVISQN [PMS2] | -0.0345 | 48.3 | 49.7 | -0.029 | 1.02 | 1.74 |
| MAGGPPKALPSTGPHSLRDMPHPLAGSSSEEAVGGDSTPSPDLLMARSFGDKDLILPNGGTPAGTSSPASSSSLLNRLQLDDDIDGETRDLFVIVDDPKKHVCTMETYITYRITTKSTRVEFDLPEYSVRRRYQDFDWLRSKLEESQPTHLIPPLPEKFVVKGVVDRFSEEFVETRRKALDKFLKRITDHPVLSFNEHFNIFLTAKDLNAYKKQGIALLTRMGESVKHVTGGYKLRTRPLEFAAIGDYLDTFALKLGTIDRIAQRIIKEEIEYLVELREYGPVYSTWSALEGELAEPLEGVSACIGNCSTALEELTDDMTEDFLPVLREYILYSDSMKSVLKKRDQVQAEYEAKLEAVALRKEDRPKVPADVEKCQDRMECFNADLKADMERWQNNKRQDFRQLLMGMADKNIQYYEKCLMAWESIIPLLQEKQEAK [SNX30] | 0.262 | 50.1 | 50.7 | -0.31 | 0.333 | 1.76 |
